Assay [1] addresses T1, Recombinant human CD137/His (human, UniProt Q07011 24-186).
T1 construct: Analyte of the SPR assay; also called 4-1BB; TNFRSF9; not shown: His tag
The experiment in a line: SPR (Biacore), antibody captured on anti-human Fc, human CD137/His as analyte, 1:1 fit. The method, then: This example illustrates binding affinities of exemplary anti-CD137 antibodies disclosed herein. Affinities were determined using surface plasmon resonance (Biacore). Briefly, anti-human Fc antibody (GE, BR-1008-39) was immobilized on CM5 sensor chip to approximately 1000 RU using standard NHS/EDC coupling methodology. Antibodies (about 10 μg/ml) were captured for 60 s at a flow rate 10 μl/min Recombinant human CD137/His was serially diluted in running buffer (HBS-EP). All measurements were conducted with a flow rate of 30 μL/min Surfaces were regenerated with 3M MgCl₂ for 60 s. A 1:1 (Langmuir) binding model was used to fit the data.

A further assay has as its target T2, mouse CD137/Fc (mouse, UniProt P20334 24-187).
T2 construct: Coated on the ELISA plate at 2 µg/mL; also called murine CD137; not shown: Fc part
T2 sequence (looked up): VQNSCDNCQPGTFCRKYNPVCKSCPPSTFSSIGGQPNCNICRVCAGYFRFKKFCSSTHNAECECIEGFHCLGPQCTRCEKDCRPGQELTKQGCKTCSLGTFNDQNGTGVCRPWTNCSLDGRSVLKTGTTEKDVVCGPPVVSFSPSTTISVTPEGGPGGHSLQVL
Kind of assay: ELISA, plate coated with mouse CD137/Fc at 2 µg/mL, detection with HRP anti-human Lambda, OD 450 nm. The method, then: A Maxisorp plate was coated with recombinant human CD137/Fc or mouse CD137/Fc at 2 μg/mL at 4° C., overnight. The plate was blocked for 1 hour at room temperature, washed 3 times with PBS-Tween (PBST), then anti-CD137 antibodies (˜1 μg/mL) diluted in casein were added and incubated for 30 min with shaking. The plate was washed 3 times with PBST, horseradish peroxidase (HRP)-conjugated mouse anti-human Lambda (1:1000 in casein) was added, then 3,3′,5,5′-Tetramethylbenzidine (TMB) was added as substrate and developed about 5 min. 2M H₂SO₄ was used to stop the reaction and the OD was read at 450 nm.

B1: anti-CD137 antibody D6 (antibody, V domains shown)
VH: QMQLVQSGAEVKKPGASVKVSCKASGYTFTGYYMHWVRQAPGQGLEWMGWINPNSGGTNYAQKFQGRVTITRDTSASTAYMELSSLRSEDTAVYYCAREGEAVGLDLDYWGQGTLVTVSS
VL: SYELTQPPSVSVAPGKTARITCGGNNIGSKSVHWYQQKPGQAPVLVIYYDSDRPSGIPERFSGSNSGNTATLTISRVEAGDEADYYCQVWDSSSVVFGGGTQLTVL
notes: Fully human antibody, captured through anti-human Fc in SPR and detected with anti-human Lambda in ELISA
In the case of B1, in assay [1], the Kd amounted to 203 nM, the koff turned out to be 0.0814 s⁻¹ and the kon is 401000 M⁻¹ s⁻¹. Also, the binding result with mouse CD137/Fc is recorded as “no binding”.

B2: anti-CD137 antibody MB12 (antibody, V domains shown)
VH: QMQLVQSGAEVKKPGASVKVSCKASGYSLEGYYMHWVRQAPGQGLEWMGWINPNSGGTNYAQKFQGRVTITRDTSASTAYMELSSLRSEDTAVYYCAREGEAVGLDLDYWGQGTLVTVSS
VL: SYELTQPPSVSVAPGKTARITCGGNNIGSKSVHWYQQKPGQAPVLVIYYDSDRPSGIPERFSGSNSGNTATLTISRVEAGDEADYYCQVWDSSSVVFGGGTQLTVL
notes: Variant of D6 with the same light chain variable domain
In the case of B2, in assay [1], the Ka was 6.47e+06 M⁻¹, the koff amounted to 0.0669 s⁻¹ and the kon turned out to be 433000 M⁻¹ s⁻¹. In addition, the binding result with mouse CD137/Fc is recorded as “no binding”.

B3: anti-CD137 antibody MB3 (antibody, V domains shown)
VH: QMQLVQSGAEVKKPGASVKVSCKASGYQMRGYYMHWVRQAPGQGLEWMGWINPNSGGTNYAQKFQGRVTITRDTSASTAYMELSSLRSEDTAVYYCAREGEAVGLDLDYWGQGTLVTVSS
VL: SYELTQPPSVSVAPGKTARITCGGNNIGSKSVHWYQQKPGQAPVLVIYYDSDRPSGIPERFSGSNSGNTATLTISRVEAGDEADYYCQVWDSSSVVFGGGTQLTVL
notes: as for B2
In the case of B3, in assay [1], the koff turned out to be 0.0678 s⁻¹ and the kon was determined as 296000 M⁻¹ s⁻¹. For the same molecule, the binding result with mouse CD137/Fc is “no binding”.

B4: anti-CD137 antibody MSA11 (antibody, V domains shown)
VH: QMQLVQSGAEVKKPGASVKVSCKASGYSFTGYYMHWVRQAPGQGLEWMGWVNPKSGGTNYAQKFQGRVTITRDTSASTAYMELSSLRSEDTAVYYCAREGWARRIDLDEWGQGTLVTVSS
VL: SYELTQPPSVSVAPGKTARITCGGNNIGSKSVHWYQQKPGQAPVLVIYYDSDRPSGIPERFSGSNSGNTATLTISRVEAGDEADYYCQVWDSSSVVFGGGTQLTVL
notes: as for B2
For the molecule B4, in assay [1], the Ka is 2.13e+07 M⁻¹, the koff came out at 0.00631 s⁻¹ and the kon turned out to be 135000 M⁻¹ s⁻¹.

B5: anti-CD137 antibody MSB7 (antibody, V domains shown)
VH: QMQLVQSGAEVKKPGASVKVSCKASGYSFSGYYMHWVRQAPGQGLEWMGWVNPMSGGTNYAQKFQGRVTITRDTSASTAYMELSSLRSEDTAVYYCAREGMAMRLELDKWGQGTLVTVSS
VL: SYELTQPPSVSVAPGKTARITCGGNNIGSKSVHWYQQKPGQAPVLVIYYDSDRPSGIPERFSGSNSGNTATLTISRVEAGDEADYYCQVWDSSSVVFGGGTQLTVL
notes: as for B2
In the case of B5, in assay [1], the Ka was 6.03e+07 M⁻¹, the koff was determined as 0.00756 s⁻¹ and the kon amounted to 456000 M⁻¹ s⁻¹.

B6: anti-CD137 antibody MSC8 (antibody, V domains shown)
VH: QMQLVQSGAEVKKPGASVKVSCKASGYNFGGYYMHWVRQAPGQGLEWMGWVNPKSGGTNYAQKFQGRVTITRDTSASTAYMELSSLRSEDTAVYYCAREGEAVGLDLDYWGQGTLVTVSS
VL: SYELTQPPSVSVAPGKTARITCGGNNIGSKSVHWYQQKPGQAPVLVIYYDSDRPSGIPERFSGSNSGNTATLTISRVEAGDEADYYCQVWDSSSVVFGGGTQLTVL
notes: as for B2
Take B6: in assay [1], the koff came out at 0.0615 s⁻¹ and the kon was determined as 282000 M⁻¹ s⁻¹. The binding result with mouse CD137/Fc is “no binding”.

B7: anti-CD137 antibody MSH1 (antibody, V domains shown)
VH: QMQLVQSGAEVKKPGASVKVSCKASGYNFGGYYMHWVRQAPGQGLEWMGWVNPHSGGTNYAQKFQGRVTITRDTSASTAYMELSSLRSEDTAVYYCAREGEAWGLDLDLWGQGTLVTVSS
VL: SYELTQPPSVSVAPGKTARITCGGNNIGSKSVHWYQQKPGQAPVLVIYYDSDRPSGIPERFSGSNSGNTATLTISRVEAGDEADYYCQVWDSSSVVFGGGTQLTVL
notes: as for B2
Regarding B7, in assay [1], the Ka was 1.14e+07 M⁻¹, the koff was 0.0324 s⁻¹ and the kon stood at 369000 M⁻¹ s⁻¹.

B8: anti-CD137 antibody MC8 (antibody, V domains shown)
VH: QMQLVQSGAEVKKPGASVKVSCKASGYMPDGYYMHWVRQAPGQGLEWMGWINPRTGGTNYAQKFQGRVTITRDTSASTAYMELSSLRSEDTAVYYCAREGAAFRLELDAWGQGTLVTVSS
VL: SYELTQPPSVSVAPGKTARITCGGNNIGSKSVHWYQQKPGQAPVLVIYYDSDRPSGIPERFSGSNSGNTATLTISRVEAGDEADYYCQVWDSSSVVFGGGTQLTVL
notes: as for B2
In the case of B8, in assay [1], the Ka turned out to be 3.32e+07 M⁻¹, the koff came out at 0.00628 s⁻¹ and the kon came out at 208000 M⁻¹ s⁻¹.

B9: anti-CD137 antibody MD4 (antibody, V domains shown)
VH: QMQLVQSGAEVKKPGASVKVSCKASGYNWTGYYMHWVRQAPGQGLEWMGWINPMAGGTNYAQKFQGRVTITRDTSASTAYMELSSLRSEDTAVYYCAREGWARGVELDMWGQGTLVTVSS
VL: SYELTQPPSVSVAPGKTARITCGGNNIGSKSVHWYQQKPGQAPVLVIYYDSDRPSGIPERFSGSNSGNTATLTISRVEAGDEADYYCQVWDSSSVVFGGGTQLTVL
notes: as for B2
For the molecule B9, in assay [1], the Ka is 1.12e+07 M⁻¹, the Kd was found to be 88.9 nM, the koff amounted to 0.0512 s⁻¹ and the kon was determined as 576000 M⁻¹ s⁻¹.

For the origin of these results see patent US20160244528A1 (SORRENTO THERAPEUTICS, published 2016).
